Our source for the He/Con_1a values is patent publication US20180155451A1 (published 2018).

B1: GpH7-A5/GpH7-B3 variant H268_07I/GpL16-k0 (antibody, human IgG1, kappa)
heavy 1: not shown
heavy 2: not shown
light: DIVMTQSPLSLPVTPGEPASISCQASESLVHSNRNTYLHWYLQKPGQSPQLLIYKVSNRFSGVPDRFSGSGSGTDFTLKISRVEAEDVGVYYCSQNTHVPPTFGQGTKVEIERTVAAPSVFIFPPSDEQLKSGTASVVCLLNNFYPREAKVQWKVDNALQSGNSQESVTEQDSKDSTYSLSSTLTLSKADYEKHKVYACEVTHQGLSSPVTKSFNRGEC
notes: heterodimerized; also called He Ab H268_07I
B2: GpH7-A5/GpH7-B3 variant E333_11K/GpL16-k0 (antibody, human IgG1, kappa)
heavy 1: not shown
heavy 2: not shown
light: DIVMTQSPLSLPVTPGEPASISCQASESLVHSNRNTYLHWYLQKPGQSPQLLIYKVSNRFSGVPDRFSGSGSGTDFTLKISRVEAEDVGVYYCSQNTHVPPTFGQGTKVEIERTVAAPSVFIFPPSDEQLKSGTASVVCLLNNFYPREAKVQWKVDNALQSGNSQESVTEQDSKDSTYSLSSTLTLSKADYEKHKVYACEVTHQGLSSPVTKSFNRGEC
notes: heterodimerized; also called He Ab E333_11K
B3: GpH7-A5/GpH7-B3 variant E333_12R/GpL16-k0 (antibody, human IgG1, kappa)
heavy 1: not shown
heavy 2: not shown
light: DIVMTQSPLSLPVTPGEPASISCQASESLVHSNRNTYLHWYLQKPGQSPQLLIYKVSNRFSGVPDRFSGSGSGTDFTLKISRVEAEDVGVYYCSQNTHVPPTFGQGTKVEIERTVAAPSVFIFPPSDEQLKSGTASVVCLLNNFYPREAKVQWKVDNALQSGNSQESVTEQDSKDSTYSLSSTLTLSKADYEKHKVYACEVTHQGLSSPVTKSFNRGEC
notes: heterodimerized; also called He Ab E333_12R
B4: GpH7-A5/GpH7-B3 variant H268_05P/GpL16-k0 (antibody, human IgG1, kappa)
heavy 1: not shown
heavy 2: not shown
light: DIVMTQSPLSLPVTPGEPASISCQASESLVHSNRNTYLHWYLQKPGQSPQLLIYKVSNRFSGVPDRFSGSGSGTDFTLKISRVEAEDVGVYYCSQNTHVPPTFGQGTKVEIERTVAAPSVFIFPPSDEQLKSGTASVVCLLNNFYPREAKVQWKVDNALQSGNSQESVTEQDSKDSTYSLSSTLTLSKADYEKHKVYACEVTHQGLSSPVTKSFNRGEC
notes: heterodimerized; also called He Ab H268_05P
B5: GpH7-A5/GpH7-B3 variant H268_02A/GpL16-k0 (antibody, human IgG1, kappa)
heavy 1: not shown
heavy 2: not shown
light: DIVMTQSPLSLPVTPGEPASISCQASESLVHSNRNTYLHWYLQKPGQSPQLLIYKVSNRFSGVPDRFSGSGSGTDFTLKISRVEAEDVGVYYCSQNTHVPPTFGQGTKVEIERTVAAPSVFIFPPSDEQLKSGTASVVCLLNNFYPREAKVQWKVDNALQSGNSQESVTEQDSKDSTYSLSSTLTLSKADYEKHKVYACEVTHQGLSSPVTKSFNRGEC
notes: heterodimerized; also called He Ab H268_02A
B6: GpH7-A5/GpH7-B3 variant E333_16H/GpL16-k0 (antibody, human IgG1, kappa)
heavy 1: not shown
heavy 2: not shown
light: DIVMTQSPLSLPVTPGEPASISCQASESLVHSNRNTYLHWYLQKPGQSPQLLIYKVSNRFSGVPDRFSGSGSGTDFTLKISRVEAEDVGVYYCSQNTHVPPTFGQGTKVEIERTVAAPSVFIFPPSDEQLKSGTASVVCLLNNFYPREAKVQWKVDNALQSGNSQESVTEQDSKDSTYSLSSTLTLSKADYEKHKVYACEVTHQGLSSPVTKSFNRGEC
notes: heterodimerized; also called He Ab E333_16H
B7: GpH7-A5/GpH7-B3 variant I336_03V/GpL16-k0 (antibody, human IgG1, kappa)
heavy 1: not shown
heavy 2: not shown
light: DIVMTQSPLSLPVTPGEPASISCQASESLVHSNRNTYLHWYLQKPGQSPQLLIYKVSNRFSGVPDRFSGSGSGTDFTLKISRVEAEDVGVYYCSQNTHVPPTFGQGTKVEIERTVAAPSVFIFPPSDEQLKSGTASVVCLLNNFYPREAKVQWKVDNALQSGNSQESVTEQDSKDSTYSLSSTLTLSKADYEKHKVYACEVTHQGLSSPVTKSFNRGEC
notes: heterodimerized; also called He Ab I336_03V
B8: GpH7-A5/GpH7-B3 variant I332_12R/GpL16-k0 (antibody, human IgG1, kappa)
heavy 1: not shown
heavy 2: not shown
light: DIVMTQSPLSLPVTPGEPASISCQASESLVHSNRNTYLHWYLQKPGQSPQLLIYKVSNRFSGVPDRFSGSGSGTDFTLKISRVEAEDVGVYYCSQNTHVPPTFGQGTKVEIERTVAAPSVFIFPPSDEQLKSGTASVVCLLNNFYPREAKVQWKVDNALQSGNSQESVTEQDSKDSTYSLSSTLTLSKADYEKHKVYACEVTHQGLSSPVTKSFNRGEC
notes: heterodimerized; also called He Ab I332_12R
B9: GpH7-A5/GpH7-B3 variant I336_04F/GpL16-k0 (antibody, human IgG1, kappa)
heavy 1: not shown
heavy 2: not shown
light: DIVMTQSPLSLPVTPGEPASISCQASESLVHSNRNTYLHWYLQKPGQSPQLLIYKVSNRFSGVPDRFSGSGSGTDFTLKISRVEAEDVGVYYCSQNTHVPPTFGQGTKVEIERTVAAPSVFIFPPSDEQLKSGTASVVCLLNNFYPREAKVQWKVDNALQSGNSQESVTEQDSKDSTYSLSSTLTLSKADYEKHKVYACEVTHQGLSSPVTKSFNRGEC
notes: heterodimerized; also called He Ab I336_04F
B10: GpH7-A5/GpH7-B3 variant H268_08L/GpL16-k0 (antibody, human IgG1, kappa)
heavy 1: not shown
heavy 2: not shown
light: DIVMTQSPLSLPVTPGEPASISCQASESLVHSNRNTYLHWYLQKPGQSPQLLIYKVSNRFSGVPDRFSGSGSGTDFTLKISRVEAEDVGVYYCSQNTHVPPTFGQGTKVEIERTVAAPSVFIFPPSDEQLKSGTASVVCLLNNFYPREAKVQWKVDNALQSGNSQESVTEQDSKDSTYSLSSTLTLSKADYEKHKVYACEVTHQGLSSPVTKSFNRGEC
notes: heterodimerized; also called He Ab H268_08L
B11: GpH7-A5/GpH7-B3 variant H268_20W/GpL16-k0 (antibody, human IgG1, kappa)
heavy 1: not shown
heavy 2: not shown
light: DIVMTQSPLSLPVTPGEPASISCQASESLVHSNRNTYLHWYLQKPGQSPQLLIYKVSNRFSGVPDRFSGSGSGTDFTLKISRVEAEDVGVYYCSQNTHVPPTFGQGTKVEIERTVAAPSVFIFPPSDEQLKSGTASVVCLLNNFYPREAKVQWKVDNALQSGNSQESVTEQDSKDSTYSLSSTLTLSKADYEKHKVYACEVTHQGLSSPVTKSFNRGEC
notes: heterodimerized; also called He Ab H268_20W

T1 sequence (P12314 16-292): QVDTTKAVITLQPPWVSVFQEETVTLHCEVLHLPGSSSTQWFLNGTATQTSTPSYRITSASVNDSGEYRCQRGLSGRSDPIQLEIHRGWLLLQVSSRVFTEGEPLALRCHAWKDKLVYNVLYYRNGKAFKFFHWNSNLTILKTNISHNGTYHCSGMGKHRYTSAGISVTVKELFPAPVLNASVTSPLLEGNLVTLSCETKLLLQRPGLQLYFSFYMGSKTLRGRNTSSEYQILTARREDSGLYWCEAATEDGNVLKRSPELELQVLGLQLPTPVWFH

The experiment concerns the target T1, FcγRIa (human, UniProt P12314 16-292).
T1 construct: extracellular domain; also called FcgRI; CD64
Briefly: SPR; vs GpH7-A5/GpH7-B3/GpL16-k0=100. On the technique in general: Surface plasmon resonance follows binding to a sensor surface in real time, without labels.
As for B1, the He/Con_1a was 108 % of control.

As for B2, the He/Con_1a is 102 % of control.

In the case of B3, the He/Con_1a was 102 % of control.

With B4, the He/Con_1a was 109 % of control.

On to B5, for which the He/Con_1a was 109 % of control.

In the case of B6, the He/Con_1a was 101 % of control.

B7: the He/Con_1a is 105 % of control.

B8: the He/Con_1a is 100 % of control.

Turning to B9, the He/Con_1a is 106 % of control.

As to B10, the He/Con_1a was 107 % of control.

On to B11, for which the He/Con_1a is 107 % of control.
